# Assay results as given in US20200306375A1 (ALETA BIOTHERAPEUTICS, published 2020).
# B1: anti-FMC63 antibody, 136.20.1 (antibody, mouse IgG2a, kappa, V domains shown)
# VH: EVKLVESGGGLVQPGGSLKLSCAASGFDFSRYWMSWVRQAPGKGLEWIGEINLDSSTINYTPSLKDKFIISRDNAKNTLYLQMSKVRSEDTALYYCARRYDAMDYWGQGTSVTVSS
# VL: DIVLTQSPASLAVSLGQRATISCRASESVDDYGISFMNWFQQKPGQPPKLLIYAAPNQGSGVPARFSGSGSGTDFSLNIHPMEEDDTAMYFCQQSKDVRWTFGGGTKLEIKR
# notes: also called anti-FMC63 (anti-Id) antibody; constructs #151/#152
# Target: T1, FMC63 CAR-Flag (construct #140)
# T1 construct: also called CAR19; CD19 CAR construct
# Experiment: flow cytometry on 293T cells transfected with construct #140; anti-mouse Fc gamma-PE detection
# Experimental: Cells transfected with construct #140 (SEQ ID NO: 317) (2.5×10\hat{ }5 in 50 ul) were incubated with 50 u1 sup or purified (5 ug/ml as final conc.) protein of constructs#151/#152 (SEQ ID NO: 319/ SEQ ID NO: 320) for 30 min at 4° C., spun and washed twice with FACS buffer. This was followed by another incubation with anti-mouse Fc gamma-PE for 30 min at 4° C. Cells were spun and washed as above, and fixed with 1% PFA in PBS. Fixed cells were analyzed on Accuri 6 for CAR expression binding (PE positive).
# T1 sequence (chain, as listed by the source): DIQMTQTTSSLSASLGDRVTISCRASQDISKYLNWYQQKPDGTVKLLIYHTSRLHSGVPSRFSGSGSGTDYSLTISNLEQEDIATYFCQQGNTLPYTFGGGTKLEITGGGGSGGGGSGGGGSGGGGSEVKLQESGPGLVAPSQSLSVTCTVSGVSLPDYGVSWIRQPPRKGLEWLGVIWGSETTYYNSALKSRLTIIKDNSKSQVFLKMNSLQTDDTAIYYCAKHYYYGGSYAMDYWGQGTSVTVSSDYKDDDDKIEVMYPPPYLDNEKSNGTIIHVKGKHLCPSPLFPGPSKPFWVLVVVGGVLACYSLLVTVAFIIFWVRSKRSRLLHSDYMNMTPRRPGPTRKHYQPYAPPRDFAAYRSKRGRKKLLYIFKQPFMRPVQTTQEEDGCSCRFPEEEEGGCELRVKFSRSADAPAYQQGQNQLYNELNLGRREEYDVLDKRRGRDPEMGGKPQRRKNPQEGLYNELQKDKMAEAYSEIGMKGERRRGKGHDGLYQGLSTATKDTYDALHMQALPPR
binder,measurement,value
B1,binding result,binds
